Data on nine molecules can be found in patent publication WO2021175954A1 (dated 2021).

T1: human BTNL8/BTNL3 heterodimer expressed on HEK-293T cells (human, UniProt Q6UXE8 18-466)
T1 sequence 1: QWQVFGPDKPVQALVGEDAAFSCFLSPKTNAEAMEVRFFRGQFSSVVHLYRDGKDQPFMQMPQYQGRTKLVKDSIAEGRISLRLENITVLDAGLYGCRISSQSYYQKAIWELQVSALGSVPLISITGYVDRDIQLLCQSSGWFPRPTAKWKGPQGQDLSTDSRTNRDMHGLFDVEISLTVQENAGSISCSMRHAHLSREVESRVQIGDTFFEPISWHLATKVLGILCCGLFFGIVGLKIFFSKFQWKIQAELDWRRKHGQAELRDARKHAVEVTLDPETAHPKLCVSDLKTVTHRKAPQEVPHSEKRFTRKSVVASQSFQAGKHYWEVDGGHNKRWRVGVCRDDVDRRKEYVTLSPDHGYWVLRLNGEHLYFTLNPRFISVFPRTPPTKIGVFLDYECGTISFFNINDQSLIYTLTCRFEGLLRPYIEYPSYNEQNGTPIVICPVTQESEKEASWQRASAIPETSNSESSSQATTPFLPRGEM
T1 sequence 2: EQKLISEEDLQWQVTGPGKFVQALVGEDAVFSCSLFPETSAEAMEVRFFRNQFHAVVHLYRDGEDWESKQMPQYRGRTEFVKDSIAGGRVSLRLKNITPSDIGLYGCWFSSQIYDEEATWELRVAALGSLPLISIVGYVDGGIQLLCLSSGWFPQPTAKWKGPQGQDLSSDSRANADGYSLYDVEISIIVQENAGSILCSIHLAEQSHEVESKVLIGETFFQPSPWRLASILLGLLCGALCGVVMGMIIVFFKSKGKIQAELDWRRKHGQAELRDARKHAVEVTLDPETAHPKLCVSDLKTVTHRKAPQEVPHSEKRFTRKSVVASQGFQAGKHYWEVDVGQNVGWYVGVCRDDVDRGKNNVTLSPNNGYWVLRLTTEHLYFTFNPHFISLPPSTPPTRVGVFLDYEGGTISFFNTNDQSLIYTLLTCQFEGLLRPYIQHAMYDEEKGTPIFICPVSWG

T2: recombinant human BTNL8 protein (BLI) (human, UniProt Q6UX41 18-238, limits assumed)
T2 construct: it may be the same rhBTNL8-Fc as in the Luminex assay; also called hBTNL8; recombinant BTNL8 protein
T2 sequence: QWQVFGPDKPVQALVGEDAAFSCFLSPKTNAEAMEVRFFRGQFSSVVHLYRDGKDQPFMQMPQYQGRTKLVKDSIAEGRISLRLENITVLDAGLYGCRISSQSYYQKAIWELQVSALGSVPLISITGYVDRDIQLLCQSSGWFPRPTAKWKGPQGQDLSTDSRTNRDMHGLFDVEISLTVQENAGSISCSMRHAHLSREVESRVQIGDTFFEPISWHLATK

T3: human BTNL3 with N-terminal c-Myc tag expressed on HEK-293T cells (human, UniProt Q6UXE8 18-466)
T3 construct: whole, on cells; also called HEK-BTNL3; myc-tagged BTNL3
T3 sequence: T1 sequence 2

T4: human BTNL8 expressed on cells (HEK-BTNL8 transductants); also endogenous on CaCo-2, HL-60 and primary gut … (human, UniProt Q6UX41 18-500)
T4 construct: also called Homo sapiens butyrophilin like 8
T4 sequence: T1 sequence 1

B1: chimeric anti-BTNL8 mAb mAbX2 (antibody, V domains shown)
VH: EVQLQQSGAEFVRPGASVKMSCTGSGLNIEDDYMHWVKQRPEQGLEWIGRIDPANGNTKYGPKFQDKATITADTSSNTAYLQLSSLTAEDTAVYYCTRNYYDGSLYYFDYWGQGTTLTVSS
VL: QIVLTQSPAIMSASLGEEITLTCSASSSVSYMHWYQQKSGTSPKLLIYSTSNLASGVPSRFSGSGSGTFYSLTISSVEAEDAADYYCHQWSRYPYTFGGGTKLEIK
B2: chimeric anti-BTNL8 mAb mAbX1 (antibody, V domains shown)
VH: QVQLQQSGAELARPGASVKLSCKASGYIFTSYGIGWVKQRTGQGLEWIGEVYPRNGHSYYNEKFKGKATLTADRSSSTAYMQLSSLTSEDSAVYFCARGGTGSQLDYWGQGTTLTVSS
VL: DIQMTQSPASLSASVGETVTITCRASENIYSYLAWYQQKQGKSPHLLVYNAKTLAEGVPSRFSGSGSGTQFSLRISSLQPEDFGNYYCQHHYGTYTFGGGTKLEIK
notes: also called mAbXl
B3: chimeric anti-BTNL8 mAb mAbX4 (antibody, V domains shown)
VH: EVQLQQSGAELVRPGASVKLSCTASGFNIKDDYMHWVKQRPEQALEWIGRIDPANGNTKYVPKFQDKATITADTSSNTASLQLSSLTSEDTAVYYCARWGIYDGYYYTMDSWGQGTSVTVSS
VL: QNVLIQSPAIMSASPGEKVTITCSASSSVSYMHWFQQKPGTSPKLWIYSTSNLASGVPARFSGSGSGTSYSLTISRMEAADAATYFCQQRSRYPYTFGGGTKLEIK
B4: chimeric anti-BTNL8 mAb mAbX5 (antibody, V domains shown)
VH: EVQLQQSGAELVRPGASIKLSCTASGFNIEDDYMHWVRQRPVQGLEWIGRIDPANGNANFAPKFQDKATITADTSSNTAYLQLSSLASEDTAVYYCTREGGLYYGNSDAMDYWGQGTSVTVSS
VL: B3 VL with N2I, I5T, S26R, H33Q, F35I, A59D, A80E, F86Y, Y95R
B5: chimeric anti-BTNL8 mAb mAbX3 (antibody, V domains shown)
VH: EVQLQQSGAELVRPGASVKLSCTASGFNIKDDYMHWVKQRPEQGLEWIGRIDPANANTKYAPKFQDKATITADTSSNTAYLHLSSLTSEDSAVYYCARNYYDGSPYYFDYWGQGTTLTVSS
VL: NIVMTQSPKSMSMSVGERVTLTCKASENVVTYVSWYQQKPEQSPKLLIYGASNRYTGVPDRFTGSGSATDFTLTISSVQAEDAAGYYCHQWSRYPYTFGGGTKLEIK
B6: reference murine antibody mAb X2 (antibody, V domains shown)
VH: B1 VH
VL: B1 VL
notes: Murine monoclonal antibody, tested as hybridoma supernatant or purified from it
B7: reference murine antibody mAb X1 (antibody, V domains shown)
VH: B2 VH
VL: B2 VL
notes: as for B6
B8: reference murine antibody mAb X5 (antibody, V domains shown)
VH: B4 VH
VL: B3 VL with N2I, I5T, S26R, H33Q, F35I, A59D, A80E, F86Y, Y95R
notes: as for B6
B9: reference murine antibody mAb X4 (antibody, V domains shown)
VH: B3 VH
VL: B3 VL
notes: as for B6

A word on the EC50: it is the concentration at which the effect is half-maximal.

Residue numbers refer to the chain shown, from its start. “And” between values parts separate entries of the source, which are not always exact repeats. Equal entries are not always repeated.

For the first experiment, the target named is T1, human BTNL8/BTNL3 heterodimer expressed …. Briefly: cell-based or functional assay.
Regarding B1, the “IC50/EC50 of inhibition of Vy4V51TCR reporter cell activation (NFAT-GFP, CD69, TCRV51)” value is < 0.5 µg/mL and < 3.3 nM.

As for B2, the “IC50/EC50 of inhibition of Vy4V51TCR reporter cell activation (NFAT-GFP, CD69, TCRV51)” value is < 0.5 µg/mL and < 3.3 nM.

Turning to B3, the “IC50/EC50 of inhibition of Vy4V51TCR reporter cell activation (NFAT-GFP, CD69, TCRV51)” value is < 0.5 µg/mL and < 3.3 nM.

Regarding B4, the “IC50/EC50 of inhibition of Vy4V51TCR reporter cell activation (NFAT-GFP, CD69, TCRV51)” value was < 0.5 µg/mL and < 3.3 nM.

The next experiment addresses T2, recombinant human BTNL8 protein (BLI). The experiment in a line: BLI, recombinant human BTNL8. (In general: In BLI a coated tip is dipped into the sample, and binding shifts an interference pattern.)
Take B5: the binding result is “no binding”.

In another experiment the target is T3, human BTNL3 with N-terminal c-Myc tag …. Briefly: flow cytometry on HEK-BTNL3 cells.
For the molecule B6, the binding result was “no binding”.

On to B7, for which the binding result is recorded as “no binding”.

As for B8, the binding result was “no binding”.

Take B9: the binding result was “no binding”.

In a further experiment the target is T4, human BTNL8 expressed on cells …. The experiment in a line: flow cytometry on HEK-BTNL8 cells, chimeric format. For orientation: Flow cytometry measures light scatter and fluorescence of single cells or particles in a stream.
With B1, the EC50 was < 0.5 µg/mL and < 3.3 nM.

Regarding B2, the EC50 was < 0.5 µg/mL and < 3.3 nM.

On to B3, for which the EC50 was < 0.5 µg/mL and < 3.3 nM.

Consider B4, for which the EC50 is < 0.5 µg/mL and < 3.3 nM.

The next experiment has as its target T1, human BTNL8/BTNL3 heterodimer expressed …. Briefly: flow cytometry on HEK-BTNL3/BTNL8 cells, chimeric format.
For B1, the EC50 was < 0.5 µg/mL and < 3.3 nM.

Take B2: the EC50 was < 0.5 µg/mL and < 3.3 nM.

For the molecule B3, the EC50 is < 0.5 µg/mL and < 3.3 nM.

With B4, the 50% effective concentration (EC50) was < 0.5 µg/mL and < 3.3 nM.
